Assay results published in article PMC9445081, “Structural basis for recognition of N-formyl peptides as pathogen-associated molecular patterns” (Nature Communications, 2022).
Where no end group is shown, it is not given here. The star is where a group is joined. For = O=C*

Assays:
FPR1 [1] = settings: non-formyl MLF versus fMLF; cited from earlier work
FPR1 [2] = settings: cited from earlier work
FPR1 V283A = biological target: T1, FPR1 V283A (human, UniProt P21462 1-350, V283A); assay: cell-based or functional assay
T1 sequence (looked up): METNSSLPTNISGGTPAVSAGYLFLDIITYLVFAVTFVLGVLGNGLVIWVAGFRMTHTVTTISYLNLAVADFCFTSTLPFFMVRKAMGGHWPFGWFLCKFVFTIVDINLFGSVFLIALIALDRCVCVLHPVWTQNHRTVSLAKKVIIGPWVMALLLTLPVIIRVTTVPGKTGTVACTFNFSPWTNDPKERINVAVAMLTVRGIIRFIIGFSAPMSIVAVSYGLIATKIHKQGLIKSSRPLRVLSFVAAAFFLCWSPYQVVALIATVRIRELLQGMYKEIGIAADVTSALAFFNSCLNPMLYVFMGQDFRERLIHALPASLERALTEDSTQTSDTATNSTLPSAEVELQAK

FPR1 T265A = biological target: T2, FPR1 T265A (human, UniProt P21462 1-350, T265A); assay: cell-based or functional assay
T2 sequence (looked up): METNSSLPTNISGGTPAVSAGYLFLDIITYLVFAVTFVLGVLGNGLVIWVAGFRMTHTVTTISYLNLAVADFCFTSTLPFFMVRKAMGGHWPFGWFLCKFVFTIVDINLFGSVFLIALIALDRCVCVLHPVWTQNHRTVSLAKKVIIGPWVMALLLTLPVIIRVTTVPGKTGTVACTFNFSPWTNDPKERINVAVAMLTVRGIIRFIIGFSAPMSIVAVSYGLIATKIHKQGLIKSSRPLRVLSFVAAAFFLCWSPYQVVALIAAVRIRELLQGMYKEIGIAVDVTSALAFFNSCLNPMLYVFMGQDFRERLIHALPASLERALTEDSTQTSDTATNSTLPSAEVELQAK

FPR1 F102A = biological target: T3, FPR1 F102A (human, UniProt P21462 1-350, F102A); assay: cell-based or functional assay
T3 sequence (looked up): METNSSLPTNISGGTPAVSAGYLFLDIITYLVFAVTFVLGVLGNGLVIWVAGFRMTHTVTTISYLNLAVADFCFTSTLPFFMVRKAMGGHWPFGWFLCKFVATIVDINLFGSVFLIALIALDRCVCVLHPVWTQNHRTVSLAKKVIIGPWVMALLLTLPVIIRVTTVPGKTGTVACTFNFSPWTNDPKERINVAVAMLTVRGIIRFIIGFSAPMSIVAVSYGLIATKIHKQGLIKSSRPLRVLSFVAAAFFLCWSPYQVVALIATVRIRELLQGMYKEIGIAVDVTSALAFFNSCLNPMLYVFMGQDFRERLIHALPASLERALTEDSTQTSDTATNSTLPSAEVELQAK

[3] = biological target: T4, WT FPR1 expressed in HeLa cells (human, UniProt P21462 1-350); assay: cell-based or functional assay
T4 sequence (looked up): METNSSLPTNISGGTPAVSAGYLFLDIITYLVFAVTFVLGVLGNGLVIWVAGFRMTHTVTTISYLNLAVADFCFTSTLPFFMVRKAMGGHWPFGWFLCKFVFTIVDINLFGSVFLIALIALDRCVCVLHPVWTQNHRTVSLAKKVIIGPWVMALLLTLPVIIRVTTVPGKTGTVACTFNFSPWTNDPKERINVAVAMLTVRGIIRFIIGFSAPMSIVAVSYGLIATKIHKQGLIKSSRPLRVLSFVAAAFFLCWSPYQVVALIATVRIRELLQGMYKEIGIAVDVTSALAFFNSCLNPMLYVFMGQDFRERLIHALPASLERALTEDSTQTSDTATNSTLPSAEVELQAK

FPR1 F291A = biological target: T5, FPR1 F291A (human, UniProt P21462 1-350, F291A); assay: cell-based or functional assay
T5 sequence (looked up): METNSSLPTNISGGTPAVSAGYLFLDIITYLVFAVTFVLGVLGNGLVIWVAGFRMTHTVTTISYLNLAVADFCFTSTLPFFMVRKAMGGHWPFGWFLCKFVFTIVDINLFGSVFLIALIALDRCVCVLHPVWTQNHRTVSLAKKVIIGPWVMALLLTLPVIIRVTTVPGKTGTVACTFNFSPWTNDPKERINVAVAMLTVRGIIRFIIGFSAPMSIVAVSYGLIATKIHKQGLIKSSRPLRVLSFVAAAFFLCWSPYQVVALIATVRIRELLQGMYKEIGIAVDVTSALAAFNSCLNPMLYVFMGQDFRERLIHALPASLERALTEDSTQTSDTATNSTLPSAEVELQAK

FPR1 L109A = biological target: T6, FPR1 L109A (human, UniProt P21462 1-350, L109A); assay: cell-based or functional assay
T6 sequence (looked up): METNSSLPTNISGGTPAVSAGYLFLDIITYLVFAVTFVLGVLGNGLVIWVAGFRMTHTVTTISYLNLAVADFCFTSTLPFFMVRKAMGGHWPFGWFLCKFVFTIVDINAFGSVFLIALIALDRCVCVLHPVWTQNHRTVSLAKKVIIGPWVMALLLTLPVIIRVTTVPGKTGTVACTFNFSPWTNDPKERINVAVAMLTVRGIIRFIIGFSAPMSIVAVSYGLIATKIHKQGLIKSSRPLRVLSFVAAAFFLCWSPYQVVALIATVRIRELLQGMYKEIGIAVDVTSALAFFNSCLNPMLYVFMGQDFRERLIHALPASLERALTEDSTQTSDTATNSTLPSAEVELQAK

FPR1 F110A = biological target: T7, FPR1 F110A (human, UniProt P21462 1-350, F110A); assay: cell-based or functional assay
T7 sequence (looked up): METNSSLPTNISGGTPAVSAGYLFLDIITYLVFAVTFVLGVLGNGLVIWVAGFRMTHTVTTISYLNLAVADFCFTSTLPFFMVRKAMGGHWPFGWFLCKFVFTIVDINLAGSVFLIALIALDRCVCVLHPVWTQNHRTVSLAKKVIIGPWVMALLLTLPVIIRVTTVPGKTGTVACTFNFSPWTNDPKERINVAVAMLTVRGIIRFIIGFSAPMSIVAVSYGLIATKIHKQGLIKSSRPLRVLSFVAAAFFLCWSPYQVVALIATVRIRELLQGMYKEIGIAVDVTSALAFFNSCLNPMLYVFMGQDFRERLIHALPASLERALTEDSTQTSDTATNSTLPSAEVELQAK

FPR1 F81A = biological target: T8, FPR1 F81A (human, UniProt P21462 1-350, F81A); assay: cell-based or functional assay
T8 sequence (looked up): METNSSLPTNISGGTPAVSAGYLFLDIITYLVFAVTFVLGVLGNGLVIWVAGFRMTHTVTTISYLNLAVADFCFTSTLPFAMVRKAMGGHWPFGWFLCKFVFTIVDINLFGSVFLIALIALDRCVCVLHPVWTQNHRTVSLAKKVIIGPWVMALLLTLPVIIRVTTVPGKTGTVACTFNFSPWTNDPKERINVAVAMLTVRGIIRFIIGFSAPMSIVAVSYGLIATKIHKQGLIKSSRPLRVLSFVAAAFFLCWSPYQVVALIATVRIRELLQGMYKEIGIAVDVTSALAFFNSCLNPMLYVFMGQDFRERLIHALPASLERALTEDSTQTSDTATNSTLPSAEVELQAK

[4] = biological target: T9, Gαi (α subunit of the Gi1 heterotrimer) (human, UniProt P63096 1-354); assay: cryo-EM structure; settings: both partners purified
T9 construct: Gαi of the Gi1 heterotrimer, human cDNA; The same chain as the first chain of m4; source: Trichoplusia ni Hi5 insect cells (baculovirus), purified as part of the Gi1 heterotrimer (Ni-NTA)
T9 sequence (P63096 whole entry, one chain of several): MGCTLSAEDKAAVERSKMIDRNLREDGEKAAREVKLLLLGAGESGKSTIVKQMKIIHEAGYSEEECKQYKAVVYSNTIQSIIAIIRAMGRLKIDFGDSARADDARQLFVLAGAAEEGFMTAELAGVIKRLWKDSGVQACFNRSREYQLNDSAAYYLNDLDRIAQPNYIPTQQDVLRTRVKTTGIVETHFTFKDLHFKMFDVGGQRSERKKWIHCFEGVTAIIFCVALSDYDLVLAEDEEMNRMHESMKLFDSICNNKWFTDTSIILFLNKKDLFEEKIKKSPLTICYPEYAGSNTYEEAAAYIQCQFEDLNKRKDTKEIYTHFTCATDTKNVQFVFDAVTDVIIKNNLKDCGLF

Met-Leu-Phe [MLF]
orders of magnitude less potent in FPR1 binding (FPR1 [1]): 3 orders of magnitude

tBoc-MLF
pharmacological property at FPR1 (FPR1 [2]): antagonist

For-Met-Leu-Phe [fMet-Leu-Phe (fMLF)]
pEC50 of inhibition of forskolin-elevated cAMP, transfected HeLa cells (FPR1 V283A): 8.8 | pEC50 of inhibition of forskolin-elevated cAMP, transfected HeLa cells (FPR1 T265A): 7.8 | pEC50 of inhibition of forskolin-elevated cAMP, transfected HeLa cells (FPR1 F102A): 8.5 | pEC50 of inhibition of forskolin-elevated cAMP, transfected HeLa cells [3]: 9.1 | pEC50 of inhibition of forskolin-elevated cAMP, transfected HeLa cells (FPR1 F291A): 8.4 | pEC50 of inhibition of forskolin-elevated cAMP, transfected HeLa cells (FPR1 L109A): 8.1 | pEC50 of inhibition of forskolin-elevated cAMP, transfected HeLa cells (FPR1 F110A): 8.6 | pEC50 of inhibition of forskolin-elevated cAMP, transfected HeLa cells (FPR1 F81A): 8.1

B1: formyl peptide receptor 1 (FPR1), N-terminal FLAG tag and C-terminal 6 x His tag (receptor, human)
chain: METNSSLPTNISGGTPAVSAGYLFLDIITYLVFAVTFVLGVLGNGLVIWVAGFRMTHTVTTISYLNLAVADFCFTSTLPFFMVRKAMGGHWPFGWFLCKFVFTIVDINLFGSVFLIALIALDRCVCVLHPVWTQNHRTVSLAKKVIIGPWVMALLLTLPVIIRVTTVPGKTGTVACTFNFSPWTNDPKERINVAVAMLTVRGIIRFIIGFSAPMSIVAVSYGLIATKIHKQGLIKSSRPLRVLSFVAAAFFLCWSPYQVVALIATVRIRELLQGMYKEIGIAVDVTSALAFFNSCLNPMLYVFMGQDFRERLIHALPASLERALTEDSTQTSDTATNSTLPSAEVELQAK
notes: formyl peptide receptor 1, Homo sapiens, cDNA Gene ID 2357; Solubilised in DDM/CHS and exchanged to LMNG (later LMNG/GDN/CHS); also called human FPR1; source: Sf9 insect cells (baculovirus), purified (anti-FLAG M1 resin, SEC) in detergent; not shown: FLAG, N-terminal, kept
binding result [4]: binds
